{"source": "patent US20220195455", "proteins": {"B1": {"name": "N-myristoyltransferase 1, full length (protein)", "chain": "MADESETAVKPPAPPLPQMMEGNGNGHEHCSDCENEEDNSYNRGGLSPANDTGAKKKKKKQKKKKEKGSETDSAQDQPVKMNSLPAERIQEIQKAIELFSVGQGPAKTMEEASKRSYQFWDTQPVPKLGEVVNTHGPVEPDKDNIRQEPYTLPQGFTWDALDLGDRGVLKELYTLLNENYVEDDDNMFRFDYSPEFLLWALRPPGWLPQWHCGVRVVSSRKLVGFISAIPANIHIYDTEKKMVEINFLCVHKKLRSKRVAPVLIREITRRVHLEGIFQAVYTAGVVLPKPVGTCRYWHRSLNPRKLIEVKFSHLSRNMTMQRTMKLYRLPETPKTAGLRPMETKDIPVVHQLLTRYLKQFHLTPVMSQEEVEHWFYPQENIIDTFVVENANGEVTDFLSFYTLPSTIMNHPTHKSLKAAYSFYNVHTQTPLLDLMSDALVLAKMKGFDVFNALDLMENKTFLEKLKFGIGDGNLQYYLYNWKCPSMGAEKVGLVLQ"}}, "key": {"[1]": {"target": "T1, DDX46 octapeptide GRESRHYR", "T1 chain": "GRESRHYR"}, "[2]": {"target": "T2, PSMC1 octapeptide GQSQSGGH", "T2 chain": "GQSQSGGH"}, "LYN octapeptide GCIKSKGK": {"target": "T3, LYN octapeptide GCIKSKGK", "T3 chain": "GCIKSKGK"}, "[3]": {"target": "T4, NDUFB7 octapeptide GAHLVRRY", "T4 chain": "GAHLVRRY"}, "[4]": {"target": "T5, RNF11 octapeptide GNCLKSPT", "T5 chain": "GNCLKSPT"}, "[5]": {"target": "T6, YES1 octapeptide GCIKSKEN", "T6 chain": "GCIKSKEN"}, "RP2 octapeptide GCFFSKRR": {"target": "T7, RP2 octapeptide GCFFSKRR", "T7 chain": "GCFFSKRR"}, "[6]": {"target": "T8, ARL6 octapeptide GLLDRLSV", "T8 chain": "GLLDRLSV"}, "[7]": {"target": "T9, Src8(G2A) mutant octapeptide Ala-Ser-Asn-Lys-Ser-Lys-Pro-Lys", "T9 chain": "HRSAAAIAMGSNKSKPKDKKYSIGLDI"}, "LNP octapeptide GGLFSRWR": {"target": "T10, LNP octapeptide GGLFSRWR", "T10 chain": "GGLFSRWR"}, "[8]": {"target": "T11, REP15 octapeptide GQKASQQL", "T11 chain": "GQKASQQL"}, "[9]": {"target": "T12, MARCKSL1 octapeptide GSQSSKAP", "T12 chain": "GSQSSKAP"}, "FYN octapeptide GCVQCKDK": {"target": "T13, FYN octapeptide GCVQCKDK", "T13 chain": "GCVQCKDK"}, "[10]": {"target": "T14, FRS2 octapeptide GSCCSCPD", "T14 chain": "GSCCSCPD"}, "[11]": {"target": "T15, ZNRF2 octapeptide GAKQSGPA", "T15 chain": "GAKQSGPA"}, "[12]": {"target": "T16, GNAZ octapeptide GCRQSSEE", "T16 chain": "GCRQSSEE"}, "[13]": {"target": "T17, LANCL2 octapeptide GETMSKRL", "T17 chain": "GETMSKRL"}, "[14]": {"target": "T18, DEGS1 octapeptide GSRVSRED", "T18 chain": "GSRVSRED"}, "[15]": {"target": "T19, NOL3 octapeptide GNAQERPS", "T19 chain": "GNAQERPS"}, "[16]": {"target": "T20, MARCKS octapeptide GAQFSKTA", "T20 chain": "GAQFSKTA"}, "[17]": {"target": "T21, ARF6 octapeptide GKVLSKIF", "T21 chain": "GKVLSKIF"}, "[18]": {"target": "T22, NDUFAF4 octapeptide GALVIRGI", "T22 chain": "GALVIRGI"}, "[19]": {"target": "T23, SCYL3 octapeptide GSENSALK", "T23 chain": "GSENSALK"}, "[20]": {"target": "T24, ARL2 octapeptide GLLTILKK", "T24 chain": "GLLTILKK"}, "[21]": {"target": "T25, NAA40 octapeptide GRKSSKAK", "T25 chain": "GRKSSKAK"}}}
{"protein": "B1", "values": [{"measurement": "Km", "setting": "[1]", "value": "< 0.1", "unit": "µM"}, {"measurement": "Vmax", "setting": "[1]", "value": 2, "unit": "µM/min"}, {"measurement": "Km", "setting": "[2]", "value": 40, "unit": "µM"}, {"measurement": "Vmax", "setting": "[2]", "value": 9.6, "unit": "µM/min"}, {"measurement": "Km", "setting": "LYN octapeptide GCIKSKGK", "value": 22.5, "unit": "µM"}, {"measurement": "Vmax", "setting": "LYN octapeptide GCIKSKGK", "value": 64.7, "unit": "µM/min"}, {"measurement": "Km", "setting": "[3]", "value": 16.4, "unit": "µM"}, {"measurement": "Vmax", "setting": "[3]", "value": 2.8, "unit": "µM/min"}, {"measurement": "Km", "setting": "[4]", "value": 16.7, "unit": "µM"}, {"measurement": "Vmax", "setting": "[4]", "value": 61.1, "unit": "µM/min"}, {"measurement": "Km", "setting": "[5]", "value": 14.4, "unit": "µM"}, {"measurement": "Vmax", "setting": "[5]", "value": 61, "unit": "µM/min"}, {"measurement": "Km", "setting": "RP2 octapeptide GCFFSKRR", "value": 13.6, "unit": "µM"}, {"measurement": "Vmax", "setting": "RP2 octapeptide GCFFSKRR", "value": 60.8, "unit": "µM/min"}, {"measurement": "Km", "setting": "[6]", "value": "< 0.1", "unit": "µM"}, {"measurement": "Vmax", "setting": "[6]", "value": 1.8, "unit": "µM/min"}, {"measurement": "Km", "setting": "[7]", "value": "< 0.1", "unit": "µM"}, {"measurement": "Vmax", "setting": "[7]", "value": 1, "unit": "µM/min"}, {"measurement": "Km", "setting": "LNP octapeptide GGLFSRWR", "value": 10.3, "unit": "µM"}, {"measurement": "Vmax", "setting": "LNP octapeptide GGLFSRWR", "value": 21.9, "unit": "µM/min"}, {"measurement": "Km", "setting": "[8]", "value": 15.7, "unit": "µM"}, {"measurement": "Vmax", "setting": "[8]", "value": 3.4, "unit": "µM/min"}, {"measurement": "Km", "setting": "[9]", "value": 11.7, "unit": "µM"}, {"measurement": "Vmax", "setting": "[9]", "value": 6.6, "unit": "µM/min"}, {"measurement": "Km", "setting": "FYN octapeptide GCVQCKDK", "value": 5.2, "unit": "µM"}, {"measurement": "Vmax", "setting": "FYN octapeptide GCVQCKDK", "value": 54.9, "unit": "µM/min"}, {"measurement": "Km", "setting": "[10]", "value": 28.2, "unit": "µM"}, {"measurement": "Vmax", "setting": "[10]", "value": 54.7, "unit": "µM/min"}, {"measurement": "Km", "setting": "[11]", "value": 2, "unit": "µM"}, {"measurement": "Vmax", "setting": "[11]", "value": 1.6, "unit": "µM/min"}, {"measurement": "Km", "setting": "[12]", "value": 15.7, "unit": "µM"}, {"measurement": "Vmax", "setting": "[12]", "value": 64.4, "unit": "µM/min"}, {"measurement": "Km", "setting": "[13]", "value": 13, "unit": "µM"}, {"measurement": "Vmax", "setting": "[13]", "value": 5.3, "unit": "µM/min"}, {"measurement": "Km", "setting": "[14]", "value": 79.2, "unit": "µM"}, {"measurement": "Vmax", "setting": "[14]", "value": 12.9, "unit": "µM/min"}, {"measurement": "Km", "setting": "[15]", "value": 1.4, "unit": "µM"}, {"measurement": "Vmax", "setting": "[15]", "value": 2, "unit": "µM/min"}, {"measurement": "Km", "setting": "[16]", "value": 38.4, "unit": "µM"}, {"measurement": "Vmax", "setting": "[16]", "value": 6.4, "unit": "µM/min"}, {"measurement": "Km", "setting": "[17]", "value": 4.4, "unit": "µM"}, {"measurement": "Vmax", "setting": "[17]", "value": 13.6, "unit": "µM/min"}, {"measurement": "Km", "setting": "[18]", "value": 0.5, "unit": "µM"}, {"measurement": "Vmax", "setting": "[18]", "value": 1.2, "unit": "µM/min"}, {"measurement": "Km", "setting": "[19]", "value": 0.8, "unit": "µM"}, {"measurement": "Vmax", "setting": "[19]", "value": 1.7, "unit": "µM/min"}, {"measurement": "Km", "setting": "[20]", "value": 0.4, "unit": "µM"}, {"measurement": "Vmax", "setting": "[20]", "value": 1.2, "unit": "µM/min"}, {"measurement": "Km", "setting": "[21]", "value": 1.2, "unit": "µM"}, {"measurement": "Vmax", "setting": "[21]", "value": 1.8, "unit": "µM/min"}]}
